Data taken from patent US20250262316A1 (BIO THERA SOLUTIONS, published 2025).

T1: Lag3 (NCBI Reference Sequence: NP_002277.4) on Lag3-CHO cells (UniProt P18627 23-525, limits assumed)
T1 construct: whole, on cells
T1 sequence (looked up): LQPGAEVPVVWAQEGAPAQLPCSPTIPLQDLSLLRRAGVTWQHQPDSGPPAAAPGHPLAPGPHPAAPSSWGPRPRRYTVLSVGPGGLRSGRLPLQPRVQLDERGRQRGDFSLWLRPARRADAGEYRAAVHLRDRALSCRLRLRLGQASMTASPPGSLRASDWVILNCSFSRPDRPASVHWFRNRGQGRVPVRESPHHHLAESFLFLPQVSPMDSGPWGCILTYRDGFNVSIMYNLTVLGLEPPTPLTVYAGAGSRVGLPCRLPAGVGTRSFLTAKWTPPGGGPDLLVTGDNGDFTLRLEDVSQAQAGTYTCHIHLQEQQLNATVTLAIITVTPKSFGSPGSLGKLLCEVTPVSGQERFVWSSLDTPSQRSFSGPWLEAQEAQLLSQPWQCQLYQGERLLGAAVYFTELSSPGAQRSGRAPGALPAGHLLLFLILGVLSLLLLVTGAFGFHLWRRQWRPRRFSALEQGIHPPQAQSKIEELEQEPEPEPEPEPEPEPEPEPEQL

T2: B7-H3 on MDA-MB-468 cells (human, UniProt Q5ZPR3)
T2 construct: endogenous, on the cell surface
T2 sequence (cell surface antigen, looked up): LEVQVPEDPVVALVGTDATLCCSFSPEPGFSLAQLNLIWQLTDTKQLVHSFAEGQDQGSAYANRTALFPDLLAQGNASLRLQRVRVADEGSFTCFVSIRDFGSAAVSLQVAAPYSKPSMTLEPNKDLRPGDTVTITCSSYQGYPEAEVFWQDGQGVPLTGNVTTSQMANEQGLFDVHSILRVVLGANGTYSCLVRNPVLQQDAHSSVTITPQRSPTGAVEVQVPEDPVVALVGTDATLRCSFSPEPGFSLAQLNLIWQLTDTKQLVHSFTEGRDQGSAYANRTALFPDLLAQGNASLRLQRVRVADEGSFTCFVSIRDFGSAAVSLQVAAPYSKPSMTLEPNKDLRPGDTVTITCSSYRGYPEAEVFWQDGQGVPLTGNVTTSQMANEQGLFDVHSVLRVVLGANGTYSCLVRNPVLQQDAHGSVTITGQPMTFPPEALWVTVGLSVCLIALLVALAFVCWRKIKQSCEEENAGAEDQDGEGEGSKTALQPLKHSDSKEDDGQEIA

T3: antigen hB7-H3-His (human, UniProt Q5ZPR3 29-461)
T3 construct: residues 1-28 are left out on that ground
T3 sequence: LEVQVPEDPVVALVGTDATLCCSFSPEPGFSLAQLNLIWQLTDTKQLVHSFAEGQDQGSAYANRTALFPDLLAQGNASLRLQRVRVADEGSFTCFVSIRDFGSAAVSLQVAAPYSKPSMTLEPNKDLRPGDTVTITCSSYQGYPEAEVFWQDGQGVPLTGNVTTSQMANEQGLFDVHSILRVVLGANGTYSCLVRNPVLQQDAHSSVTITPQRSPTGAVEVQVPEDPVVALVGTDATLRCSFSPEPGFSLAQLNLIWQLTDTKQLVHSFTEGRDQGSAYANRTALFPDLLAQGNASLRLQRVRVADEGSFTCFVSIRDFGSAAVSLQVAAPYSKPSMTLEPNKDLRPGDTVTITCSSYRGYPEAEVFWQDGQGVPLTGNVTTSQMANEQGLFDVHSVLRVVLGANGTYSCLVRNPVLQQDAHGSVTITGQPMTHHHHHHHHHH

T4: B7-H3 (NCBI Reference Sequence: NP_001019907.1) on CHO-K1-B7-H3 cells (human, UniProt Q5ZPR3 29-534)
T4 sequence: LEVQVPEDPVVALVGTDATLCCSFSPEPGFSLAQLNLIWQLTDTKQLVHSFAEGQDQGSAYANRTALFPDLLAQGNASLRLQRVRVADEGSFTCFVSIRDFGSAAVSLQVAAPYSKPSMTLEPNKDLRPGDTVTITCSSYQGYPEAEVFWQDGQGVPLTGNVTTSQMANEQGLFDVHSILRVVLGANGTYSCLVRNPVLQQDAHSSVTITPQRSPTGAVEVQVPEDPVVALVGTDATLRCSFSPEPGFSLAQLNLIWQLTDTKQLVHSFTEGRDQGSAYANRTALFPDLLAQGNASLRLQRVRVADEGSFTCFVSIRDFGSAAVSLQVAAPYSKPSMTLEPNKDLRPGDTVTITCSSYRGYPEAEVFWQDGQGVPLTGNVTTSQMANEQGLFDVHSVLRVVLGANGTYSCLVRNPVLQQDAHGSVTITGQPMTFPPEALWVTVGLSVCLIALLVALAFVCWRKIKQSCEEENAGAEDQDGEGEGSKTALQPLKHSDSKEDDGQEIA

T5: B7-H3 on Calu-6 cells (UniProt Q5ZPR3 29-534, limits assumed)
T5 sequence (looked up): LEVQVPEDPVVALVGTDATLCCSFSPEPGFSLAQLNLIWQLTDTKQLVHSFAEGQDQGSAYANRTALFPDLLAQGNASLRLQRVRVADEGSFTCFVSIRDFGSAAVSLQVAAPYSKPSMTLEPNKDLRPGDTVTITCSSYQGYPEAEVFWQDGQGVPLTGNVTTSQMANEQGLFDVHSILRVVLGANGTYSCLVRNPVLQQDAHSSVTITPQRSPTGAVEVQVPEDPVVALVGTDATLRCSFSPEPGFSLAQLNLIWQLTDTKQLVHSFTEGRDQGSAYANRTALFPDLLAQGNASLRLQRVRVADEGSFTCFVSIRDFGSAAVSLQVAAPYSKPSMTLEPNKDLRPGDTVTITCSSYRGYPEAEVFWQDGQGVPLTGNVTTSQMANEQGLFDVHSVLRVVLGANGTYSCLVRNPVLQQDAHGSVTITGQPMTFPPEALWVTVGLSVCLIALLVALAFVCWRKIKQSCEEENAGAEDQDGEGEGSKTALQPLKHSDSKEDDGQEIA


Assays:
[1] = target: T1, Lag3 (NCBI Reference Sequence: …); assay: flow cytometry on Lag3-CHO cells, PE anti-human IgG Fc secondary
[2] = target: T2, B7-H3 on MDA-MB-468 cells; assay: flow cytometry on MDA-MB-468 cells; blank V2-R 0.9%
[3] = target: T6, Tim3 (NCBI Reference Sequence: NP_116171.3) on Tim3-CHO cells (UniProt Q8TDQ0 22-301, limits assumed); assay: flow cytometry on Tim3-CHO cells, PE anti-human IgG Fc secondary
T6 construct: whole, on cells

[4] = target: T2, B7-H3 on MDA-MB-468 cells; assay: flow cytometry on MDA-MB-468 cells, PE anti-human IgG Fc secondary, antibody from 100 nM in 3-fold dilutions; axis 'Concentration' has no unit, nM from p-1056
[5] = target: T7, VISTA (NCBI Reference Sequence: NP_071436.1) on VISTA-CHO cells (UniProt Q9H7M9 33-311, limits assumed); assay: flow cytometry on VISTA-CHO cells, PE anti-human IgG Fc secondary
T7 construct: whole, on cells

[6] = target: T8, hB7-H3-Fc; assay: ELISA on coated hB7-H3-Fc (2 ug/mL), HRP anti-human kappa secondary, A450, antibody from 300 nM in 3-fold dilutions; axis 'Concentration' has no unit, nM from p-1066
T8 construct: also called antigen hB7-H3-Fc
T8 sequence (fusion chain, as listed by the source limits assumed): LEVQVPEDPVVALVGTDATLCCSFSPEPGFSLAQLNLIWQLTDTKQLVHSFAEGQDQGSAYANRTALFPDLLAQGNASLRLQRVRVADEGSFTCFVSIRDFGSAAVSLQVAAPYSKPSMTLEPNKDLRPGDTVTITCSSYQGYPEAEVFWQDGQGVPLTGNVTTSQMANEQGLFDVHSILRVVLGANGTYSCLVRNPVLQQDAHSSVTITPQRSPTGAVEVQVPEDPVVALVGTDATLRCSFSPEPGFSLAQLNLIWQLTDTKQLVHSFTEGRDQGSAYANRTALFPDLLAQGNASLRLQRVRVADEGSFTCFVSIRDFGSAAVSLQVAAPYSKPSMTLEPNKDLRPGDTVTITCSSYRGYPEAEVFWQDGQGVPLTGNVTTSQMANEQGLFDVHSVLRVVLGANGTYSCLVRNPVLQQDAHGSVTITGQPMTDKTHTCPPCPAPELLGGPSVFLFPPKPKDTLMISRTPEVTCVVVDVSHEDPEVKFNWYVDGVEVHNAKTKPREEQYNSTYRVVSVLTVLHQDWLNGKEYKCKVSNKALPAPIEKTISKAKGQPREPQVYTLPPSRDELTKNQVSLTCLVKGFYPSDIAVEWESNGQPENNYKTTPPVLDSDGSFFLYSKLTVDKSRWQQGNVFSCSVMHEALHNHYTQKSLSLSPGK

[7] = target: T3, antigen hB7-H3-His; assay: SPR, BiaCore T200, antibody captured on Protein A chip, hB7-H3-His as analyte, 1:1 model
[8] = target: T4, B7-H3 (NCBI Reference Sequence: …); assay: cell-based or functional assay
[9] = target: T5, B7-H3 on Calu-6 cells; assay: cell-based or functional assay

binding result [1] | % of cells in gate V1-R at 0.411 nM [2] [%] | % of cells in gate V1-R at 1.23 nM [2] [%] | % of cells in gate V1-R at 3.7 nM [2] [%] | % of cells in gate V1-R at 11.11 nM [2] [%] | % of cells in gate V1-R at 33.33 nM [2] [%] | % of cells in gate V1-R at 100 nM [2] [%] | binding result [3] | EC50 [4] [nM] | binding result [5] | EC50 [6] [nM] | Kd [7] [nM] | koff [7] [s⁻¹] | kon [7] [M⁻¹ s⁻¹] | Binder | IC50 (nM), in-vitro cytotoxicity, CCK8 [8] [nM] | IC50 (nM), in-vitro cytotoxicity, CCK8 [9] [nM]
no binding (tested: 100 nM) | 1.1 | 4 | 38.4 | 97.2 | 98.8 | 99.3 | no binding (tested: 100 nM) | 8.54 | no binding (tested: 100 nM) | 3.73 | 0.986 | 0.00024 | 244000 | control Antibody M30-H1-L4 (antibody, human IgG1, kappa, V domains shown, Control anti-B7-H3 antibody) VH: QVQLVQSGAEVKKPGSSVKVSCKASGYTFTNYVMHWVRQAPGQGLEWMGYINPYNDDVKYNEKFKGRVTITADESTSTAYMELSSLRSEDTAVYYCARWGYYGSPLYYFDYWGQGTLVTVSS VL: EIVLTQSPATLSLSPGERATLSCRASSRLIYMHWYQQKPGQAPRPLIYATSNLASGIPARFSGSGSGTDFTLTISSLEPEDFAVYYCQQWNSNPPTFGQGTKVEIKR |  | 
 |  |  |  |  |  |  |  |  |  |  |  |  |  | ADC2 (control drug) (antibody, human IgG1, kappa, V domains shown, MC-GGFG-DXD (Deruxtecan) conjugated after TCEP reduction; DAR (p) 3.7 for the whole antibody; sites not stated) VH: EVQLVQSGAEVKKSGESLKISCKASGYTFTDYDINWVRQMPGKGLEWIGWIFPGDDTTKYNEKFKGQVTLSADKSTNTAYMQWSSLKASDTAMYYCARSPSFDYWGQGTLVTVSS VL: QIVLTQSPGTLSLSPGERATLSCSASSTIGFMYWYQQKPGQAPRRWIYDTSKLASGVPDRFSGSGSGTDYTLTISRLEPEDFAVYYCHQRSSYPTFGQGTKVEIKR | 0.77 | 68.8
no binding (tested: 100 nM) | 26.5 | 93.1 | 98.7 | 99.5 | 99.7 | 99.7 | no binding (tested: 100 nM) | 1.54 | no binding (tested: 100 nM) | 3.69 | 0.372 | 0.000279 | 750000 | Antibody M1 (antibody, human IgG1, kappa, V domains shown, Chimeric antibody: murine variable regions on human IgG1 and light chain constant regions; expressed in HEK293F cells; also called chimeric antibody M1) VH: QVQLQQSGPELVKPGASVRISCKASGYTFTDYDINWVQQRPGQGLEWIGWIFPGDDTTKYNEKFKGRATLTADKSSNTAYMQLNGLTSENSAVYFCARSPSFDYWGQGTLVTVSS VL: QIVLTQSPAIMSASPGERVTMTCSASSTIGFMYWYQQKPGTSPKRWIYDTSKLASGVPARFSVSGSGTSYSLTISSMEAEDAATYYCHQRSSYPTFGGGTKLEIKR |  | 
 |  |  |  |  |  |  |  | 69.3 |  |  | 383 | 0.0491 | 128000 | Antibody M2 (antibody, human IgG1, kappa, V domains shown, Chimeric antibody: murine variable regions on human IgG1 and light chain constant regions; expressed in HEK293F cells; also called chimeric antibody M2) VH: QVQLQQSGPELVKPGASVRISCKASGYTFTDYDINWVQQRPGQGLEWIGWIFPGDDTTKYNEKFKGRATLTADKSSNTAYMQLNGLTSENSAVYFCARSPSFDYWGQGTLVTVSS VL: DIKMTQSPSSMYASLGERVTITCKASQDINRFLSWFQQKPGKSPKTLIYRANRLRDGVPSRFSGNGSGQDYSLTISSLEYEDMGIYYCLQYDEFPPFTFGSGTKLEIKR |  | 
